Results taken from paper PMC11209382, “Exploring the Potentiality of a Plant Platform for Monoclonal Antibody Production in Veterinary Medicine” (Vaccines, 2024).

Key:
[1] = molecular target: recombinant canine Interleukin 31 produced in Nicotiana benthamiana (canine); test: SEC; elution volume on a calibrated Superdex 200 column; monomer to dimer
[2] = molecular target: recombinant canine Interleukin 31 produced in Nicotiana benthamiana (canine); test: dynamic light scattering; hydrodynamic radius of cIL-31 at pH 7.5; monomer to dimer
[3] = molecular target: recombinant canine Interleukin 31 produced in HEK cells (canine); test: as above
[4] = molecular target: canine neonatal Fc receptor, C-terminus biotinylated, attached to Streptavidin (cFcRn-SmBiT) (canine); test: other; competition with IgG-LgBiT tracer
[5] = molecular target: T1, canine neonatal Fc receptor, C-terminus biotinylated, attached to Streptavidin (cFcRn-SmBiT) (canine, biotin at the C-terminus); test: competition with IgG-LgBiT tracer
T1 chain 1: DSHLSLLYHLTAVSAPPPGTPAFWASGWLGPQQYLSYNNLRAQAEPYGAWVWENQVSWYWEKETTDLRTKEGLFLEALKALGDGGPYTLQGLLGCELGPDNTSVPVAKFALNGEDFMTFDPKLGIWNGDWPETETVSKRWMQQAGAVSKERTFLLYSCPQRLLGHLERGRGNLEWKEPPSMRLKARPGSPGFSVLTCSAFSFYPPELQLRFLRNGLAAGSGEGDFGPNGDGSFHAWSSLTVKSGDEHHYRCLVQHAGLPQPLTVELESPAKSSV
T1 chain 2: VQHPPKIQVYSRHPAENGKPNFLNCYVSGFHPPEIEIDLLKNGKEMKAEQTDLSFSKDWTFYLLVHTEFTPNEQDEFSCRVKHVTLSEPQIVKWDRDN

[6] = molecular target: T2, recombinant canine Interleukin 31 produced in HEK cells (canine); test: BLI
T2 chain: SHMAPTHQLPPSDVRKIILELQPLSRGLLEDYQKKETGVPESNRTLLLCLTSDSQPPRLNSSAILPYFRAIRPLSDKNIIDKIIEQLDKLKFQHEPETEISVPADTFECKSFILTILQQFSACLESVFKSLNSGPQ

[7] = molecular target: T3, recombinant canine Interleukin 31 produced in HEK cells (canine); test: BLI; Lokivetmab or M1 (5 nM) immobilised on ProA biosensors to 1 nm; rcIL-31 (HEK) 300 to 80 nM in solution; 25 °C, PBS pH 7.4, 0.1% BSA, 0.02% Tween; association 360 s, dissociation 600 s; global fit, KD from kd/ka; details: both partners purified
T3 construct: canine Interleukin 31 (IL-31); also called rcIL-31 (HEK); cIL-31 (HEK); source: produced in HEK cells
T3 chain: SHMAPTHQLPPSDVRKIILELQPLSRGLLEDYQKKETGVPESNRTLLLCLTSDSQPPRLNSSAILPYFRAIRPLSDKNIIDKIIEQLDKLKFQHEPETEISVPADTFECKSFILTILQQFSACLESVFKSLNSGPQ

recombinant canine Interleukin 31 produced in Nicotiana benthamiana (ligand)
stoichiometry N [1]: 2
stoichiometry N [2]: 2

recombinant canine Interleukin 31 produced in HEK cells (ligand)
stoichiometry N [3]: 2

Lokivetmab
IC50 [4]: 68.7 µg/mL

B1: plant-made anti-cIL-31 monoclonal antibody M1 produced in wild-type N. benthamiana (antibody)
chain 1: EVQLVESGGDLVKPGGSLRLSCVASGFTFSNYGMSWVRQAPGKGLQWVATISYGGSYTYYPDNIKGRFTISRDNAKNTLYLQMNSLRAEDTAMYYCVRGYGYDTMDYWGQGTLVTVSS
chain 2: EIVMTQSPASLSLSQEEKVTITCKASQSVSFAGTGLMHWYQQKPGQAPKLLIYRASNLEAGVPSRFSGSGSGTDFSFTISSLEPEDVAVYYCQQSREYPWTFGQGTKLEIK
IC50 [5]: 17.9 µg/mL

B2: plant-made anti-cIL-31 monoclonal antibody M1 produced in FucT/XylT mutant (ΔXF) N. benthamiana (antibody, V domains shown)
VH: EVQLVESGGDLVKPGGSLRLSCVASGFTFSNYGMSWVRQAPGKGLQWVATISYGGSYTYYPDNIKGRFTISRDNAKNTLYLQMNSLRAEDTAMYYCVRGYGYDTMDYWGQGTLVTVSS
VL: EIVMTQSPASLSLSQEEKVTITCKASQSVSFAGTGLMHWYQQKPGQAPKLLIYRASNLEAGVPSRFSGSGSGTDFSFTISSLEPEDVAVYYCQQSREYPWTFGQGTKLEIK
notes: CAN-34D03-VH-568-1); CAN 34D03-VL998-1); LC constant domain kappa (XP_035562095.1); Full IgG; N-glycans lack core α(1,3)-fucose and β(1,2)-xylose; also called M1 ΔXF; plant-made Lokivetmab biosimilar; source: ΔXF N. benthamiana, transient expression, purified (Protein A: Hi Screen Fibro PrismA)
koff [6]: 0.00345 s⁻¹
IC50 [5]: 21.6 µg/mL
Kd [7]: 28.5 nM

B3: Lokivetmab (antibody, V domains shown)
VH: EVQLVESGGDLVKPGGSLRLSCVASGFTFSNYGMSWVRQAPGKGLQWVATISYGGSYTYYPDNIKGRFTISRDNAKNTLYLQMNSLRAEDTAMYYCVRGYGYDTMDYWGQGTLVTVSS
VL: EIVMTQSPASLSLSQEEKVTITCKASQSVSFAGTGLMHWYQQKPGQAPKLLIYRASNLEAGVPSRFSGSGSGTDFSFTISSLEPEDVAVYYCQQSREYPWTFGQGTKLEIK
notes: Caninized IgG; major N-glycoform GnGnF (79%); also called caninized monoclonal antibody targeting IL-31; commercial homolog of M1; source: produced in CHO cells; commercial product
koff [6]: 0.00205 s⁻¹
Kd [7]: 27.4 nM
